Experimental data from PMC5389574 (Nucleic Acids Research, 2016).

Biological target: T1, recombinant Rpb4/Rpb7-6His (S. cerevisiae, UniProt P20433 1-221; P34087 1-171)
T1 sequence (looked up) 1: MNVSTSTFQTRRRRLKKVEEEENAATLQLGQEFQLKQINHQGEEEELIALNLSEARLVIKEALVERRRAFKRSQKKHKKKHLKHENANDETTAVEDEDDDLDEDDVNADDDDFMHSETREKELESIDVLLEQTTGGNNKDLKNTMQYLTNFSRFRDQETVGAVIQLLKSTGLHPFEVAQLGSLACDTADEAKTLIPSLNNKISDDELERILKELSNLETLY
T1 sequence (looked up) 2: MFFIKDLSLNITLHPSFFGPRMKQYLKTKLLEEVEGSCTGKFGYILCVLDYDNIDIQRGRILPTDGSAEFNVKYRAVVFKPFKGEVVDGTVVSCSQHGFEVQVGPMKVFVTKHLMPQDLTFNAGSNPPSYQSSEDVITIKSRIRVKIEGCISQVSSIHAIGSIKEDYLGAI
Assay: pull-down

- binding result: binds
B1: recombinant Sub1 (natural protein, S. cerevisiae, UniProt P54000 1-292, looked up)
chain: MSYYNRYRNKRRSDNGGGNLSNSNNNNGGMPSGLSASDAIFDLGKNKRVTVRQFRNINLIDIREYYLDSSTGEMKPGKKGISLTEDLYDELLKHRLNIDEALRRLGSKRPKTKMVRLLSDDEYEDDNNNDSTNNDKDKNGKDKNSPKKRREDKSKASNESHDLEPRSKKKKPAPPTLLPHEENIQNAEREANATLIIPGQAGRKQQEERKQKEKEEAEEAKAKAVAEQEKEAKAKEKIAEPEPEPVPTLQAKKEDIVSNINESKDANSSDEEFAQSLEAEMNKAEDDISEEE
